In PMC3169591:

B1: 30-mer (ssDNA)
DNA: GCGTGGGTAATTGTGCTTCAATGGACTGAC
B2: 15-mer (ssDNA)
DNA: TAGCAATGTAATCGT
B3: 45-mer (ssDNA)
DNA: GCCGTGATCACCAATGCAGATTGACGAACCTTTGCTCCAGTAACC

Tests used:
[1] = target: Klebsiella pneumoniae PriB (full-length, 104-amino acid protein) (Klebsiella pneumoniae (strain MGH78578)); assay: SEC; each protein applied alone at approximately 3.4 g/l to a HiPrep HR 16/10 sephacryl S-100 column, 0.35 ml/min, 10 mM Tris-HCl pH 8, 10% glycerol, 0.5 M NaCl, 1 mM beta-mercaptoethanol; column calibrated with protein standards of known molecular weight
PriB = PriB (Klebsiella pneumoniae MGH78578, UniProt A6THB2 1-104); assay: fluorescence anisotropy; apparent Kd; 1 mM Mg2+; 20 mM Tris-HCl pH 8, 50 mM NaCl, 4% glycerol, 1 mM MgCl2, 1 mM beta-mercaptoethanol, 0.1 mg/ml BSA, 1 nM DNA, 25 C; settings: protein: recombinant; tags: N-terminal His6 (pET28b); chain copies: 2; label: 3'-fluorescein; single strand
Sequence of PriB (A6THB2 whole entry): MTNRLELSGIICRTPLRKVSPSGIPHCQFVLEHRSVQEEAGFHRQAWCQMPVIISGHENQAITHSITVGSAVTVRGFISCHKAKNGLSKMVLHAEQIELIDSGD

Molecule | stoichiometry N [1] | Kd (PriB) [nM]
Klebsiella pneumoniae PriB (full-length, 104-amino acid protein) (natural protein) | 2 | –
B1 | – | 45 ± 7
B2 | – | 50 ± 3
B3 | – | 62 ± 14
